Test results as given in patent US20210032299A1 (Eli Lilly, published 2021).
Starred links: 1 amine or outer side, 2 acyl side, 3 side chain; linkers in the order of their positions; H or OH if unused. Non-standard residues stand in square brackets, D forms with d. Groups on a side chain read outwards from the residue. No end group written: not given here. *: point of attachment. C20 diacid = O=C(O)CCCCCCCCCCCCCCCCCCC(=O)*; C18 diacid = O=C(O)CCCCCCCCCCCCCCCCC(=O)*; γGlu = O=C(O)[C@H](CCC(=O)[*:2])N[*:1]; 4Pal = N[C@@H](Cc1ccncc1)C(=O)O; αMeL = CC(C)C[C@](C)(N)C(=O)O; AEEA = NCCOCCOCC(=O)O; Aib = CC(C)(N)C(=O)O

T1: human glucose-dependent insulinotropic polypeptide (GIP) receptor (human, UniProt P48546 22-466)
T1 construct: whole, on cells; Assayed as crude membranes of stably transfected CHO cells; also called hGIPR; human GIP receptor
T1 sequence (looked up): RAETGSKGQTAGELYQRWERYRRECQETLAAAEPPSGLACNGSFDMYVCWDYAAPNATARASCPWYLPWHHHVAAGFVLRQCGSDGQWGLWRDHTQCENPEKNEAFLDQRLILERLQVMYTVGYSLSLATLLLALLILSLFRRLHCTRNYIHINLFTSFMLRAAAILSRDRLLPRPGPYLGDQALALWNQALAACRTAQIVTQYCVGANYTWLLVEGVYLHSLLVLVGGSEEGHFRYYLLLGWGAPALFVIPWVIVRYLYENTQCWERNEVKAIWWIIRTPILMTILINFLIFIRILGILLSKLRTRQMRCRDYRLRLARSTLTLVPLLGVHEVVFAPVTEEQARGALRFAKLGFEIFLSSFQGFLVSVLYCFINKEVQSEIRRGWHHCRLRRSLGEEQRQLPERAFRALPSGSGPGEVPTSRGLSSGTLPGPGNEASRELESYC


Legend:
[1] = target: T1, human glucose-dependent insulinotropic …; experiment: SPA, displacement of [125I]-GIP from hGIPR membranes, 0.1% bacitracin
Method: The binding buffer contains 25 mM HEPES, pH 7.4, 2.5 mM CaCl₂, 1 mM MgCl₂, 0.1% (w/v) bacitracin, 0.003% (w/v) TWEEN®-20, and Roche Complete™ Protease Inhibitors without EDTA. […] Plates are sealed and mixed on a plate shaker (setting 6) for 1 minute and read with a PerkinElmer Trilux MicroBeta® scintillation counter after 2.5 to 12 hours of incubation/settling time at room temperature.
(§1) Data are analyzed using four-parameter (curve maximum, curve minimum, […], Hill slope) nonlinear regression routines (Genedata Screener, version 12.0.4, Genedata AG, Basal, Switzerland). […] Values for Kᵢ are reported as the geometric mean, with error expressed as the standard error of the mean (SEM) and n is equal to the number of independent replicates (determined in assays performed on different days). Geometric Means are calculated as follows: […]

human GLP-1 receptor = target: T2, human GLP-1 receptor (human, UniProt P43220 24-463); experiment: SPA, displacement of [125I]-GLP-1 from hGLP-1R membranes, 0.1% bacitracin
T2 construct: whole, on cells; Assayed as crude membranes of stably transfected HEK293 cells; also called hGLP1R; hGLP-1R
Method: The binding buffer contains 25 mM HEPES, pH 7.4, 2.5 mM CaCl₂, 1 mM MgCl₂, 0.1% (w/v) bacitracin, 0.003% (w/v) TWEEN®-20, and Roche Complete™ Protease Inhibitors without EDTA.
as §1

Binder	Ki [1]	Ki (human GLP-1 receptor)
Y[Aib]EGTFISDYSILLDKK([AEEA-AEEA-γGlu-C18 diacid])HQ[Aib]DFVNYLLAAGPSSGAPPPS-NH2 (N-terminus assumed; SMILES CC[C@H](C)[C@H](NC(=O)[C@H](CO)NC(=O)[C@H](Cc1ccc(O)cc1)NC(=O)[C@H](CC(=O)O)NC(=O)[C@H](CO)NC(=O)[C@@H](NC(=O)[C@H](Cc1ccccc1)NC(=O)[C@@H](NC(=O)CNC(=O)[C@H](CCC(=O)O)NC(=O)C(C)(C)NC(=O)[C@@H](N)Cc1ccc(O)cc1)[C@@H](C)O)[C@@H](C)CC)C(=O)N[C@@H](CC(C)C)C(=O)N[C@@H](CC(C)C)C(=O)N[C@@H](CC(=O)O)C(=O)N[C@@H](CCCCN)C(=O)N[C@@H](CCCCNC(=O)COCCOCCNC(=O)COCCOCCNC(=O)CC[C@H](NC(=O)CCCCCCCCCCCCCCCCC(=O)O)C(=O)O)C(=O)N[C@@H](Cc1c[nH]cn1)C(=O)N[C@@H](CCC(N)=O)C(=O)NC(C)(C)C(=O)N[C@@H](CC(=O)O)C(=O)N[C@@H](Cc1ccccc1)C(=O)N[C@H](C(=O)N[C@@H](CC(N)=O)C(=O)N[C@@H](Cc1ccc(O)cc1)C(=O)N[C@@H](CC(C)C)C(=O)N[C@@H](CC(C)C)C(=O)N[C@@H](C)C(=O)N[C@@H](C)C(=O)NCC(=O)N1CCC[C@H]1C(=O)N[C@@H](CO)C(=O)N[C@@H](CO)C(=O)NCC(=O)N[C@@H](C)C(=O)N1CCC[C@H]1C(=O)N1CCC[C@H]1C(=O)N1CCC[C@H]1C(=O)N[C@@H](CO)C(N)=O)C(C)C) [Example 31]	0.0473 nM	266 nM
Y[dA]EGTLISDYSILLDKK([AEEA-AEEA-γGlu-C18 diacid])AQ[Aib]DFVNWLLAQGPSSGAPPPS-NH2 (N-terminus assumed; SMILES CC[C@H](C)[C@H](NC(=O)[C@H](CO)NC(=O)[C@H](Cc1ccc(O)cc1)NC(=O)[C@H](CC(=O)O)NC(=O)[C@H](CO)NC(=O)[C@@H](NC(=O)[C@H](CC(C)C)NC(=O)[C@@H](NC(=O)CNC(=O)[C@H](CCC(=O)O)NC(=O)[C@@H](C)NC(=O)[C@@H](N)Cc1ccc(O)cc1)[C@@H](C)O)[C@@H](C)CC)C(=O)N[C@@H](CC(C)C)C(=O)N[C@@H](CC(C)C)C(=O)N[C@@H](CC(=O)O)C(=O)N[C@@H](CCCCN)C(=O)N[C@@H](CCCCNC(=O)COCCOCCNC(=O)COCCOCCNC(=O)CC[C@H](NC(=O)CCCCCCCCCCCCCCCCC(=O)O)C(=O)O)C(=O)N[C@@H](C)C(=O)N[C@@H](CCC(N)=O)C(=O)NC(C)(C)C(=O)N[C@@H](CC(=O)O)C(=O)N[C@@H](Cc1ccccc1)C(=O)N[C@H](C(=O)N[C@@H](CC(N)=O)C(=O)N[C@@H](Cc1c[nH]c2ccccc12)C(=O)N[C@@H](CC(C)C)C(=O)N[C@@H](CC(C)C)C(=O)N[C@@H](C)C(=O)N[C@@H](CCC(N)=O)C(=O)NCC(=O)N1CCC[C@H]1C(=O)N[C@@H](CO)C(=O)N[C@@H](CO)C(=O)NCC(=O)N[C@@H](C)C(=O)N1CCC[C@H]1C(=O)N1CCC[C@H]1C(=O)N1CCC[C@H]1C(=O)N[C@@H](CO)C(N)=O)C(C)C) [Example 32]	0.0343 nM	85.2 nM
Y[Aib]EGTFISDYSI[Aib]LDKK([AEEA-AEEA-γGlu-C18 diacid])HQ[Aib]DFVE[4Pal]LLAGGPSSGAPPPS-NH2 (N-terminus assumed; SMILES CC[C@H](C)[C@H](NC(=O)[C@H](Cc1ccccc1)NC(=O)[C@@H](NC(=O)CNC(=O)[C@H](CCC(=O)O)NC(=O)C(C)(C)NC(=O)[C@@H](N)Cc1ccc(O)cc1)[C@@H](C)O)C(=O)N[C@@H](CO)C(=O)N[C@@H](CC(=O)O)C(=O)N[C@@H](Cc1ccc(O)cc1)C(=O)N[C@@H](CO)C(=O)N[C@H](C(=O)NC(C)(C)C(=O)N[C@@H](CC(C)C)C(=O)N[C@@H](CC(=O)O)C(=O)N[C@@H](CCCCN)C(=O)N[C@@H](CCCCNC(=O)COCCOCCNC(=O)COCCOCCNC(=O)CC[C@H](NC(=O)CCCCCCCCCCCCCCCCC(=O)O)C(=O)O)C(=O)N[C@@H](Cc1c[nH]cn1)C(=O)N[C@@H](CCC(N)=O)C(=O)NC(C)(C)C(=O)N[C@@H](CC(=O)O)C(=O)N[C@@H](Cc1ccccc1)C(=O)N[C@H](C(=O)N[C@@H](CCC(=O)O)C(=O)N[C@@H](Cc1ccncc1)C(=O)N[C@@H](CC(C)C)C(=O)N[C@@H](CC(C)C)C(=O)N[C@@H](C)C(=O)NCC(=O)NCC(=O)N1CCC[C@H]1C(=O)N[C@@H](CO)C(=O)N[C@@H](CO)C(=O)NCC(=O)N[C@@H](C)C(=O)N1CCC[C@H]1C(=O)N1CCC[C@H]1C(=O)N1CCC[C@H]1C(=O)N[C@@H](CO)C(N)=O)C(C)C)[C@@H](C)CC) [Example 24]	0.254 nM	729 nM
Y[Aib]EGTFISDYSI[αMeL]LDEK([AEEA-AEEA-γGlu-C20 diacid])HQ[Aib]DFVE[4Pal]LLAQGPSSGAPPPS-NH2 (N-terminus assumed; SMILES CC[C@H](C)[C@H](NC(=O)[C@H](Cc1ccccc1)NC(=O)[C@@H](NC(=O)CNC(=O)[C@H](CCC(=O)O)NC(=O)C(C)(C)NC(=O)[C@@H](N)Cc1ccc(O)cc1)[C@@H](C)O)C(=O)N[C@@H](CO)C(=O)N[C@@H](CC(=O)O)C(=O)N[C@@H](Cc1ccc(O)cc1)C(=O)N[C@@H](CO)C(=O)N[C@H](C(=O)N[C@@](C)(CC(C)C)C(=O)N[C@@H](CC(C)C)C(=O)N[C@@H](CC(=O)O)C(=O)N[C@@H](CCC(=O)O)C(=O)N[C@@H](CCCCNC(=O)COCCOCCNC(=O)COCCOCCNC(=O)CC[C@H](NC(=O)CCCCCCCCCCCCCCCCCCC(=O)O)C(=O)O)C(=O)N[C@@H](Cc1c[nH]cn1)C(=O)N[C@@H](CCC(N)=O)C(=O)NC(C)(C)C(=O)N[C@@H](CC(=O)O)C(=O)N[C@@H](Cc1ccccc1)C(=O)N[C@H](C(=O)N[C@@H](CCC(=O)O)C(=O)N[C@@H](Cc1ccncc1)C(=O)N[C@@H](CC(C)C)C(=O)N[C@@H](CC(C)C)C(=O)N[C@@H](C)C(=O)N[C@@H](CCC(N)=O)C(=O)NCC(=O)N1CCC[C@H]1C(=O)N[C@@H](CO)C(=O)N[C@@H](CO)C(=O)NCC(=O)N[C@@H](C)C(=O)N1CCC[C@H]1C(=O)N1CCC[C@H]1C(=O)N1CCC[C@H]1C(=O)N[C@@H](CO)C(N)=O)C(C)C)[C@@H](C)CC) [Example 84]	0.0584 nM	325 nM
Y[Aib]EGTFISDYSI[αMeL]LDEK([AEEA-AEEA-γGlu-C20 diacid])HQ[Aib]DFVE[4Pal]LLATGPSSGAPPPS-NH2 (N-terminus assumed; SMILES CC[C@H](C)[C@H](NC(=O)[C@H](Cc1ccccc1)NC(=O)[C@@H](NC(=O)CNC(=O)[C@H](CCC(=O)O)NC(=O)C(C)(C)NC(=O)[C@@H](N)Cc1ccc(O)cc1)[C@@H](C)O)C(=O)N[C@@H](CO)C(=O)N[C@@H](CC(=O)O)C(=O)N[C@@H](Cc1ccc(O)cc1)C(=O)N[C@@H](CO)C(=O)N[C@H](C(=O)N[C@@](C)(CC(C)C)C(=O)N[C@@H](CC(C)C)C(=O)N[C@@H](CC(=O)O)C(=O)N[C@@H](CCC(=O)O)C(=O)N[C@@H](CCCCNC(=O)COCCOCCNC(=O)COCCOCCNC(=O)CC[C@H](NC(=O)CCCCCCCCCCCCCCCCCCC(=O)O)C(=O)O)C(=O)N[C@@H](Cc1c[nH]cn1)C(=O)N[C@@H](CCC(N)=O)C(=O)NC(C)(C)C(=O)N[C@@H](CC(=O)O)C(=O)N[C@@H](Cc1ccccc1)C(=O)N[C@H](C(=O)N[C@@H](CCC(=O)O)C(=O)N[C@@H](Cc1ccncc1)C(=O)N[C@@H](CC(C)C)C(=O)N[C@@H](CC(C)C)C(=O)N[C@@H](C)C(=O)N[C@H](C(=O)NCC(=O)N1CCC[C@H]1C(=O)N[C@@H](CO)C(=O)N[C@@H](CO)C(=O)NCC(=O)N[C@@H](C)C(=O)N1CCC[C@H]1C(=O)N1CCC[C@H]1C(=O)N1CCC[C@H]1C(=O)N[C@@H](CO)C(N)=O)[C@@H](C)O)C(C)C)[C@@H](C)CC) [Example 83]	0.116 nM	452 nM
